Test results from US20030148417A1.

Experiments:
Experiment in all cases: cell-based or functional assay
[1] = biological target: native purified aspartic endoproteinase from cacao beans (TcAP2, 30.5 kDa polypeptide), size exclusion pool #57-64 (Theobroma cacao)
[2] = biological target: recombinant TcAP2 protein (aspartic endoproteinase from Theobroma cacao, secreted by Yarrowia lipolytica clone pCY330-33) (Theobroma cacao)
[3] = biological target: bovine haemoglobin (bovine) (UniProt P01966)
Sequence of bovine haemoglobin (bovine) (P01966 2-142, chain 1 of 2): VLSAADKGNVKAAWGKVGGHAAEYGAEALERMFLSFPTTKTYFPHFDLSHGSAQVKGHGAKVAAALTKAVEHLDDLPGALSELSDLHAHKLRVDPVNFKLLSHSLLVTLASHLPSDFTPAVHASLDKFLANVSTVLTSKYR
Sequence of bovine haemoglobin (bovine) (P02070 whole entry, chain 2 of 2, further chain): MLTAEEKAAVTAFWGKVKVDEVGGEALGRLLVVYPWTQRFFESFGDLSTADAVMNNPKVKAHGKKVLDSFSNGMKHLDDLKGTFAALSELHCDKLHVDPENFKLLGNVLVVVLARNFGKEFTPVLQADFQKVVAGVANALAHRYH

Sequence of native purified aspartic endoproteinase from cacao beans (TcAP2, 30.5 kDa polypeptide), size exclusion pool #57-64 (Theobroma cacao) (chain, as listed by the source limits assumed, form in doubt): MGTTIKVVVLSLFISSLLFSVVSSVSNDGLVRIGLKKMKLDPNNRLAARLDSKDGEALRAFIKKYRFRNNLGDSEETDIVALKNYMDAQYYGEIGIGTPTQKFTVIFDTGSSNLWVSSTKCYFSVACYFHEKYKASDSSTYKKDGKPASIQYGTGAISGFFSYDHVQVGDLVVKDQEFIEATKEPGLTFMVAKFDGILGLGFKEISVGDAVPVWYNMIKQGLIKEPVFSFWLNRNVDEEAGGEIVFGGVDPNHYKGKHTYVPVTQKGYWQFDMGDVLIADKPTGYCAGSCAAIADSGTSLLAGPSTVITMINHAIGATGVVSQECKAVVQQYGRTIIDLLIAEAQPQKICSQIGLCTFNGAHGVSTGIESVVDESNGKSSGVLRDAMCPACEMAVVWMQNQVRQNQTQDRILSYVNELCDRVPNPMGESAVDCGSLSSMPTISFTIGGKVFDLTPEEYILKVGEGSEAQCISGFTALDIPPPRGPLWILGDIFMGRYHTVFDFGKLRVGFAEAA

| Substance | Remaining Activity % (hydrolysis of bovine hemoglobin, 0.002 mM Pepstatin A) [1] [%] | pepstatin insensitive activity (hydrolysis of bovine haemoglobin, 2 µM pepstatin), percent of uninhibited activity [2] [%] | hydrolysis of bovine haemoglobin, activity at pH 3 without inhibitor (taken as 100%) (pmoles L-leucine produced/min/mg protein) [3] |
| --- | --- | --- | --- |
| Pepstatin A (peptide) | 0 | 6.65 | – |
| recombinant TcAP2 protein (aspartic endoproteinase from Theobroma cacao, secreted by Yarrowia lipolytica clone pCY330-33) (enzyme) | – | – | 28.8 |
